Experimental data as given in US9119839B2, “Cancer treatment” (Pfizer Inc., priority 2009, dated 2015).

Assays:
[1] = test system: previously-untreated, unresectable melanoma; test: Clinical trial A3671009, randomized multicenter Phase 3 study of tremelimumab versus chemotherapy: overall survival by baseline serum CRP category; format: in vivo, human; conditions: for Median OS: tremelimumab 15 mg/kg i.v. every 90 days (Arm A) or dacarbazine/temozolomide (Arm B); for HR (hazard ratio for survival for the two treatment arms): CTLA4 blockade versus chemotherapy
Procedure: Patients randomized to Arm A received intravenous tremelimumab at a dose of 15 mg/kg every 90 days for up to four doses. Patients randomized to Arm B received either dacarbazine at 1000 mg/m^2 or temozolomide at 200 mg/m^2 at the discretion of the investigator. The primary objective of the trial was to compare overall survival of patients in the two treatment arms. Objective tumor response was a secondary endpoint. In the A3671009 trial, serum CRP was measured in most patients before initiation of treatment. In the analysis described below, baseline CRP refers to the result of a CRP assay performed on serum drawn from patients up to 14 days prior randomization into the study. […] The hazard ratio of 1.48 represents a 48% improvement in overall survival in favor of patients who received CTLA4 blockade.

CRP = conditions: treatment with IL-6 / IL-6 receptor inhibitor; cited from earlier work
[2] = patients with baseline CRP > 1.5 ULN
[3] = patients with baseline CRP ≦ 1.5 ULN

Molecule	Median OS [1, 2] [months]	Median OS [1, 3] [months]	effect on CRP levels (CRP)	HR (hazard ratio for survival for the two treatment arms) ([1]; baseline CRP > 1.5 ULN, P-value 0.3076)	HR (hazard ratio for survival for the two treatment arms) ([1]; baseline CRP ≦ 1.5 ULN, P-value 0.0037)	improvement in overall survival ([1]; low baseline CRP, in favor of CTLA4 blockade versus chemotherapy) [%]	difference in overall survival between treatment groups ([1]; patients with high baseline CRP, versus chemotherapy (FIG. 2))	difference in overall survival between treatment groups ([1]; patients with low baseline CRP, versus chemotherapy (FIG. 1))
dacarbazine or temozolomide [Chemotherapy, reference compound]	6.1	12.7	–	–	–	–	–	–
tocilizumab	–	–	reduce CRP levels	–	–	–	–	–
tremelimumab (antibody, listed as Homo sapiens, anti-CTLA4 monoclonal IgG2 antibody 11.2.1; Arm A of trial A3671009) VH: GVVQPGRSLRLSCAASGFTFSSYGMHWVRQAPGKGLEWVAVIWYDGSNKYYADSVKGRFTISRDNSKNTLYLQMNSLRAEDTAVYYCARDPRGATLYYYYYGMDVWGQGTTVTVSSASTKGPSVFPLAPCSRSTSESTAALGCLVKDYFPEPVTVSWNSGALTSGVH VL: PSSLSASVGDRVTITCRASQSINSYLDWYQQKPGKAPKLLIYAASSLQSGVPSRFSGSGSGTDFTLTISSLQPEDFATYYCQQYYSTPFTFGPGTKVEIKRTVAAPSVFIFPPSDEQLKSGTASVVCLLNNFYPREAKV	6.1	19.1	–	0.86	1.48	48	no apparent difference	clinically meaningful and statistically significant difference
